This series in a line: label from the status in PepcDB records.

For “MSFPLIFERSRKGRRGLKLVKAVPKAEDLIPKEHLREVPPRLPEVDELTLVRHYTGLSRRQVGVDTTFYPLGSCTMKYNPKLHEEAARLFADLHPYQDPRTAQGALRLMWELGEYLKALTGMDAITLEPAAGAHGELTGILIIRAYHEDRGEGRTRRVVLVPDSAHGSNPATASMAGYQVREIPSGPEGEVDLEALKRELGPHVAALMLTNPNTLGLFERRILEISRLCKEAGVQLYYDGANLNAIMGWARPGDMGFDVVHLNLHKTFTVPHGGGGPGSGPVGVKAHLAPYLPVPLVERGEEGFYLDFDRPKSIGRVRSFYGNFLALVRAWAYIRTLGLEGLKKAAALAVLNARYLKELLKEKGYRVPYDGPSMHEFVAQPPEGFRALDLAKGLLELGFHPPTVYFPLIVKEALMVEPTETEAKETLEAFAEAMGALLKKPKEWLENAPYSTPVRRLDELRANKHPKLTYFDEG”, the protein production result is reported as “not failed”.
In the case of “MSFQEIPIIDLQEAFDPATRSKFLEEVRDAIINVGFLLLKNYESLGPTEEDLQSIKQQAIEFFALPAKEKLQCEMLNSPHFLGYTRLANEITASHTDWREQIDLATELPAPKEGEPLYKNIEGPNLWPNPEVIPKFRPTIERFIEKMTALSNVFKDLVAESIGVDPKALNRYFKENQQCKMKLIAYPDVSELDGTKSAALDDTPETNQGVEPHRDSDLITYIYQATEHQNSLQVQNFQGHWITVPNIPGHLVVNNGQTLQAITGGVAKATIHRVLVPEKGTGTRISIPFFQTIDLDSSKGVVDNLPQEVIDLKNERDKKIKDWGVDTGFQFEPDVSKEPIGHAVFRNRIKSHQDVAKKWYPDVLKSVLQEYTH”, the protein production result is recorded as “not failed”.
As for “MSFSYGLAVPFVPTLVLLPQTSAAHVQRIRGGNILSLIDQPPPVVPTLTPPPQQARSGIRINKVTSSYAGLLTSVKEAGLLERCRRDYLLLLTLLVIAGAGVLVAFFFVGDSWLQLVVAAALGIVFTQFALFGHEAAHQQVFTSRAANEWAARLIATLMVGMSYAYWTDKHSRHHARPNVVNRDPDIAPGAIVFHNEVPTNRGRFSRAYGKRQGYLLFPLLLFLGWTLHIDSLKYLLKRGPVKFRWLELGLLGVRFGTYIGLLFLVLSPGIAVAFIGVQVAVFGLYMGGTFAPNHKGMPILPADSRADFLSRQVLTSRNITGGGFVTFLMGGLNYQIEHHLFPDMPRRHLREASQLVKAHCVRTGIPYTETSLMRSYSIVIRYLNTVGLAAADPFTCPLAGQHRP”, the entry is “failed”.
The result for “MSFTGKDYSRFRSQQQRGNPHSSEGNTSAVHGTGQNSRPQTPINQASGASPQQGNQSPNGSVNHANPLASRLNDITLDELLDSLGRAGLLRLDPNRPPGTFWFEDDPSVPATVRSIFERDFKELHANWSMTPQHVVDRWFETFAQMYNWDKTINKRVKTEFEAKLKERMTDQVCRWKGKWREKGDAAMPRWFDPAVWAGLISFWRDPKSELKSINSRNARLHDPDGLGIHKHRSGQTSYKAHARKRCELTGETTPNFLVLLDKTHRKPDGSFIDGKSEEIYNEVSSRIQEESSQLCSNNTTESTASGGGSKEEREDIWGWFIAARSRMSSHWSFSSSRRSG” reads “failed”; that for “MSFTWRKKMDAKTNNAISKSMMFFHWVIGLGMIAVLISGLVMDDESNNLLFNAHMSFGLLVLALSVPRLVGRLIGGMPKPMTERSKFESIAAAVVMYSLLALTVVLPLSGIAVSVGEGYGLSLFGFELVSSGREIHMLKELGEGIHEFSGEALLPFLLVLHLGASFMHHFIKQDGTLLRMLGKA”, “failed”.
Take “MSFVLWLVGKKCIVDVGTNGKNSWKVGGKDGVACRDHSGFRLEKLGLFCWWKLQKDGCGQKLNRRKDHRAFPLPSVVNERPRKLND”: the protein production entry was “failed”.
Take “MSFVSALCRLAVALWVGGATLFTFVLTPTIFRSESRDAAGRIVGYLFPGYFRWGLACGAVALVALLVVRGKNWIPAAALMVVMLAVTAFQALHIEPKAAELKRQIPSFETTTKDHPLRREFSKLHGISAACNLSVIAGGVVLVILL”: the protein production entry is listed as “failed”.
With “MSFYIQLASLSIIILYVLLLFRNVDPLVATAVCVGLGFLWNISTPIDIGNAMADALGSFMALVGFIIMLGRGLGEVLTHTQVSHTLVHQIVYGVGVNTQRRAKIGIVLSSFIIVGLLGTLAGGLAILAPSLRPIAGSVGLSRPSLAVLMQASAEEALILGPFAPPVVTLLGVTGLSYGTVFLYASLPIAVVTLITTWFMASRLQKLYINEPCEDENSTEPFTPNRQQKRVTLIFLISFLFCVVYGLFTQAKTSYVIFVMLFLALITGLSCRLGLKQIFNLLFEGMQKSLHLFFLFILFDPFMALIHQAGGFNALTELLTPLINLGGKPVLSILIGFTGAFGMPGAAEATIKMLHQLFSPSVLQMQLPLITFALCMLFATRVTNYAYPGANMFAAMGFAGSENVKAMIQNGLVVTGVQVAFLIVYSLFIP”, the protein production result was “failed”.

For the origin of these results see a protein production outcome set (Wang et al. 2014).
